We go through two molecules from PMC2929994 (Molecular Biology of the Cell, 2010).

Where two headings read alike, the source gives them in different places.

Holding throughout (experiment): split reporter
In series [1] the target is Rsr1 GTPase, split-YFP fusion for BiFC (YFP^N-Rsr1 / YFP^C-Rsr1) (S. cerevisiae) (UniProt P13856).
For series [2] the target is unchanged. The source holds these as a separate data set.
The series “split reporter” concerns the molecule itself.

With “Rsr1-7^K260–264S, split-YFP fusion for BiFC (from UniProt P13856 1-272) (natural protein)”, the percent of unbudded cells with BiFC signal in series [1] was less than 2%; in series [2], 1.7%.

B1: Rsr1^K16N, split-YFP fusion for BiFC (natural protein, S. cerevisiae, UniProt P13856 1-272, looked up)
chain: MRDYKLVVLGAGGVGNSCLTVQFVQGVYLDTYDPTIEDSYRKTIEIDNKVFDLEILDTAGIAQFTAMRELYIKSGMGFLLVYSVTDRQSLEELMELREQVLRIKDSDRVPMVLIGNKADLINERVISVEEGIEVSSKWGRVPFYETSALLRSNVDEVFVDLVRQIIRNEMESVAVKDARNQSQQFSKIESPSTRLPSSAKQDTKQSNNKQSSKGLYNKSSQGQAKVKQSTPVNEKHKPSHAVPKSGSSNRTGISATSQQKKKKKNASTCTIL
With B1, the “percent of unbudded cells with BiFC signal” value in the series “split reporter” came out at 84%.
